The subject of one data set is T1, MBP-SINAT5.
T1 sequence: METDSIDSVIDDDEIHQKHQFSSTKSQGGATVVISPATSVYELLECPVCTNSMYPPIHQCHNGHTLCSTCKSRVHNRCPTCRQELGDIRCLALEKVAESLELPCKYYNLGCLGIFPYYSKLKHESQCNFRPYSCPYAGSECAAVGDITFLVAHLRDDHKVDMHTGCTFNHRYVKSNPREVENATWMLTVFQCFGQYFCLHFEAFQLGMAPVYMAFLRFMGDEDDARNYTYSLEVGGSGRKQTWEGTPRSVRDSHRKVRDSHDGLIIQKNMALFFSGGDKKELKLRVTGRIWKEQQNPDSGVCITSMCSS

Another data set has as its target T2, Myc-NAC1 (Arabidopsis, UniProt Q84TE6 1-324).
T2 construct: Product of the 35S-6xMyc-NAC1 transgene in Arabidopsis thaliana; immunoprecipitated with anti-Myc antibody; also called 6xMyc-NAC1; Myc-tagged NAC1; not shown: 6xMyc tag
T2 sequence (looked up): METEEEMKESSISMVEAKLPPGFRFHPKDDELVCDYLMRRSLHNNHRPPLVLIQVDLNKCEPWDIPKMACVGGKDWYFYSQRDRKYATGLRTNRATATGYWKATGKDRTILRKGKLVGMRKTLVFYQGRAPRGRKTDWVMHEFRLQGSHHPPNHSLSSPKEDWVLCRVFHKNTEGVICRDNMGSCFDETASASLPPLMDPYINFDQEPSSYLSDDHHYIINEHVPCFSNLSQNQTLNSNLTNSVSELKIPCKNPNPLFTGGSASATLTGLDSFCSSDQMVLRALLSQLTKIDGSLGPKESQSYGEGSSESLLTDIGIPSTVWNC
In words: immunoprecipitation with anti-Myc from roots of double transgenic plants, Western blot with anti-SINAT5. The protocol:
Western and Northern blot analyses. Antibody to SINAT5 was raised in rabbits using as an antigen the synthetic […] peptide […] (SEQ ID NO:5) corresponding to amino acid residues 3 to 18 of SINAT5 polypeptide (SEQ ID NO:1). Antibodies to c-Myc (SC40 and SC40-AC) and actin (SC1616) from Santa Cruz Biotechnology were used for immunoprecipitation and/or Western blotting. Each lane contained 10 or 20 μg protein. RNA extraction was performed by RNeasyR Plant Mini kit (Qiagene). Northern blot analysis was described previously²⁰, using as probes a NAC1 cDNA fragment encoding the NAC1 C-terminal region (amino acid 200 to 324) and a SINAT5-specific EcoRI-NdeI fragment. The 18S rRNA was used as a loading control. Each lane contained 10 μg RNA.
SINAT5 affect on expression of NAC1 in roots. Referring now to FIG. 4, there is shown the relationship between SINAT5 and NAC1 expression levels in transgenic plants. […] Root cultures from a myc-NAC1 transgenic line were treated with 50 μM of proteasome inhibitor MG 132 (+) or DMSO (−) for 3 hr. Protein extracts were processed for Western blot analysis. […] Myc-tagged proteins from roots of double transgenic plants were immunoprecipitated with antibodies specific for Myc and processed for Western blot analysis with antibodies specific for SINAT5. […] Total RNAs from the same transgenic lines were analyzed by Northern blot. […]
(In western blotting, separated proteins are transferred to a membrane and probed.)

The target in a further data set is T3, Myc-NAC1, Q84TE6.
T3 chain: T2 sequence (looked up)

Regarding MBP-SINAT5 (C49S) mutant, in the data set with MBP-SINAT5, the “self-ubiquitylation activity (E3 activity) of WT SINAT5, in vitro ubiquitylation assay” value is recorded as “the C49S mutant protein was able to inhibit the self-ubiquitylation activity of the WT SINAT5 when present at a 5-10 fold excess”.

B1: SINAT5 (wildtype) (enzyme)
chain: T1 sequence
notes: GenBank AF480944 is printed for the gene; also called WT SINAT5; SINA of Arabidopsis thaliana 5
As for B1, the binding result with Myc-NAC1 was “binds”. Also, in the data set with Myc-NAC1, Q84TE6, the “in vitro ubiquitylation of myc-NAC1 immunopurified from transgenic plants (Western blot)” value was “myc-NAC1 can be ubiquitylated by SINAT5 and this reaction is clearly dependent on E1, E2, and SINAT5 as an E3 ligase”.

The values are drawn from US20040123349A1 (published 2004).
